T1: murine IGFBP-2 with C-terminal 6His tag, P47877
T1 chain: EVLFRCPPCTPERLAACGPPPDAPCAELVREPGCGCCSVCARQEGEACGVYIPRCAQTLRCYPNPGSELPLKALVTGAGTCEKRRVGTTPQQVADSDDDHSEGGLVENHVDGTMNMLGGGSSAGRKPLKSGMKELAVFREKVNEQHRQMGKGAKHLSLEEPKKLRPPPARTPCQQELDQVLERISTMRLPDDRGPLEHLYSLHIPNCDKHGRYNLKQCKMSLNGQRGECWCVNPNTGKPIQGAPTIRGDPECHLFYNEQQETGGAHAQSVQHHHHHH

T2: murine IGFBP-4 with C-terminal 6His tag, P47879
T2 chain: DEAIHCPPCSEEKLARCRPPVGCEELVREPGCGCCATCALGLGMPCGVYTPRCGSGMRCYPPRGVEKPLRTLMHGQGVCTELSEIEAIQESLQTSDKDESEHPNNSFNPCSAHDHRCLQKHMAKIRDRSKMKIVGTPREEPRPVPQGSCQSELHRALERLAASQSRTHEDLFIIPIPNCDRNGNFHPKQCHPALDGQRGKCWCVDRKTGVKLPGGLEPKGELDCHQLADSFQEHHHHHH

T3: murine IGFBP-5 with C-terminal 6His tag, Q07079
T3 chain: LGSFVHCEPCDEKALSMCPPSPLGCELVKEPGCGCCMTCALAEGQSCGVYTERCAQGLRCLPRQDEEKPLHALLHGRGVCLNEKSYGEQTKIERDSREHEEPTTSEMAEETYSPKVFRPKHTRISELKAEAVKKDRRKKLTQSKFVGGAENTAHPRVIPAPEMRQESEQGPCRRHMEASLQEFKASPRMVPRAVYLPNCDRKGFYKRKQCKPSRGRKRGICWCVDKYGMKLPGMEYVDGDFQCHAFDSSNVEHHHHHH

T4: human IGFBP-2 with N-terminal 6His tag, P18065
T4 chain: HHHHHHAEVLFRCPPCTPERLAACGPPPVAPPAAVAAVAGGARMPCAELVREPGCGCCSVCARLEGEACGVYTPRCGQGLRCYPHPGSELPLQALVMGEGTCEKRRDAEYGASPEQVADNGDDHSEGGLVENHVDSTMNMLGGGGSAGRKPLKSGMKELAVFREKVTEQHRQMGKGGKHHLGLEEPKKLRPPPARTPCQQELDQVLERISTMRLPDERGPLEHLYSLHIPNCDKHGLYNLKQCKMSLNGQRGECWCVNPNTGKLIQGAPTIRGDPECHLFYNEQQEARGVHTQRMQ

T5: human IGFBP-4 with N-terminal 6His tag, P22692
T5 chain: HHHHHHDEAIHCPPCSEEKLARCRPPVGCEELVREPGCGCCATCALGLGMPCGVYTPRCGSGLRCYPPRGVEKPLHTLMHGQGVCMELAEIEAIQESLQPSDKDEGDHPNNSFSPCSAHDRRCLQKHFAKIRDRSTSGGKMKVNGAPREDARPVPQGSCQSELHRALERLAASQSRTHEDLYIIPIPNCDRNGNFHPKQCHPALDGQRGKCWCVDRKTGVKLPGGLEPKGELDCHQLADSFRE

B1: murine PAPP-A protein with C-terminal C-myc and Flag tags (protein)
chain: RGAEEPSPPSRALYFSGRGEQLRLRADLELPRDAFTLQVWLRAEGGQKSPAVITGLYDKCSYTSRDRGWVMGIHTTSDQGNRDPRYFFSLKTDRARKVTTIDAHRSYLPGQWVHLAATYDGRLMKLYMNGAQVATSAEQVGGIFSPLTQKCKVLMLGGSALNHNFRGHIEHFSLWKVARTQREIVSDMETRGLHTPLPQLLLQENWDNVKRTWSPMKDGNSPQVEFSNAHGFLLDTNLEPPLCGQTLCDNTEVISSYNQLPSFRQPKVVRYRVVNIYDDHHENPTVSWQQIDFQHQQLAEAFQHYNISWELEVLNINSSSLRHRLILANCDISKIGDEKCDPECNHTLTGHDGGDCRQLRYPAFMKKQQNGVCDMDCNYERFNFDGGECCDPDITDVTKTCFDPDSPHRAYLDVNELKNILRLDGSTHLNIFFANSSEEELAGVATWPWDKEALMHLGGIVLNPSFYGIPGHTHTMIHEIGHSLGLYHIFRGISEIQSCSDPCMETEPSFETGDLCNDTNPAPKHKFCGDPGPGNDTCGFHGFFNTPYNNFMSYADDDCTDSFTPNQVSRMHCYLDLVYQSWQPSRKPAPVALAPQVVGHTMDSVMLEWFPPIDGHFFERELGSACDLCLEGRILVQYAFNASSPMPCGPSGHWSPREAEGHPDVEQPCKSSVRTWSPNSAVNPHTVPPACPEPQGCYLELEFRYPLVPESLTIWVTFVSSDWDSSGAVNDIKLLTISGKNISLGPQNVFCDIPLTIRLRDVGEEVYGIQIYTLDEHLEIDAAMLTSTVDSPLCLQCKPLQYKVLRDPPLLEDVASLLHLNRRFMDTDLKLGSVYQYRIITISGNEESEPSPAAIYTHGSGYCGDGVIQKDQGEECDDMNKVNGDGCSLFCKQEVSFNCIDEPSRCYFHDGDGMCEEFEQKTSIKDCGVYTPQGFLDQWASNASVSHQDQQCPGWVVIGQPAASQVCRTKVIDLSEGISQHAWYPCTITYPYYHLPQTTFWLQTYFSQPMVAAAVIIHLVTDGTYYGDQKQETISVQLLDTKDQSHDLGLHVLSCRNNPLIIPVVHDLSQPFYHSQAVHVSFSSPLVAISGVALRSFDNFDPVTLSSCQRGETYSPAEQSCVHFACQAADCPELAVGNASLNCSSNHHYHGAQCTVSCQTGYVLQIQRDDELIKSQVGPSITVTCTEGKWNKQVACEPVDCGIPDHHHVYAASFSCPEGTTFGRRCSFQCRHPAQLKGNNSFLTCMEDGLWSFPEALCELMCLAPPPVPNADLQTARCRENKHKVGSFCKYKCKPGYHVPGSSRKSKKRAFKTQCTQDGSWQEGTCVPVTCDPPPPKFHGLYQCTNGFQFNSECRIKCEDSDASQGRGSNIIHCRKDGTWSGSFHVCREMQGQCSAPNQLNSNLKLQCPDGYAIGSECAISCLDHNSESIILPVNLTVRDIPHWMNPTRVQRIVCTAGLQWYPHPALIHCVKGCEPFMGDNYCDAINNRAFCNYDGGDCCTSTVKTKKVTPFPMSCDLQNDCACRDPEAQEHNRKDLRGYSHG
B2: human PAPP-A protein with C-terminal C-myc and Flag tags (protein)
chain: EARGATEEPSPPSRALYFSGRGEQLRVLRADLELPRDAFTLQVWLRAEGGQRSPAVITGLYDKCSYISRDRGWVVGIHTISDQDNKDPRYFFSLKTDRARQVTTINAHRSYLPGQWVYLAATYDGQFMKLYVNGAQVATSGEQVGGIFSPLTQKCKVLMLGGSALNHNYRGYIEHFSLWKVARTQREILSDMETHGAHTALPQLLLQENWDNVKHAWSPMKDGSSPKVEFSNAHGFLLDTSLEPPLCGQTLCDNTEVIASYNQLSSFRQPKVVRYRVVNLYEDDHKNPTVTREQVDFQHHQLAEAFKQYNISWELDVLEVSNSSLRRRLILANCDISKIGDENCDPECNHTLTGHDGGDCRHLRHPAFVKKQHNGVCDMDCNYERFNFDGGECCDPEITNVTQTCFDPDSPHRAYLDVNELKNILKLDGSTHLNIFFAKSSEEELAGVATWPWDKEALMHLGGIVLNPSFYGMPGHTHTMIHEIGHSLGLYHVFRGISEIQSCSDPCMETEPSFETGDLCNDTNPAPKHKSCGDPGPGNDTCGFHSFFNTPYNNFMSYADDDCTDSFTPNQVARMHCYLDLVYQGWQPSRKPAPVALAPQVLGHTTDSVTLEWFPPIDGHFFERELGSACHLCLEGRILVQYASNASSPMPCSPSGHWSPREAEGHPDVEQPCKSSVRTWSPNSAVNPHTVPPACPEPQGCYLELEFLYPLVPESLTIWVTFVSTDWDSSGAVNDIKLLAVSGKNISLGPQNVFCDVPLTIRLWDVGEEVYGIQIYTLDEHLEIDAAMLTSTADTPLCLQCKPLKYKVVRDPPLQMDVASILHLNRKFVDMDLNLGSVYQYWVITISGTEESEPSPAVTYIHGRGYCGDGIIQKDQGEQCDDMNKINGDGCSLFCRQEVSFNCIDEPSRCYFHDGDGVCEEFEQKTSIKDCGVYTPQGFLDQWASNASVSHQDQQCPGWVIIGQPAASQVCRTKVIDLSEGISQHAWYPCTISYPYSQLAQTTFWLRAYFSQPMVAAAVIVHLVTDGTYYGDQKQETISVQLLDTKDQSHDLGLHVLSCRNNPLIIPVVHDLSQPFYHSQAVRVSFSSPLVAISGVALRSFDNFDPVTLSSCQRGETYSPAEQSCVHFACEKTDCPELAVENASLNCSSSDRYHGAQCTVSCRTGYVLQIRRDDELIKSQTGPSVTVTCTEGKWNKQVACEPVDCSIPDHHQVYAASFSCPEGTTFGSQCSFQCRHPAQLKGNNSLLTCMEDGLWSFPEALCELMCLAPPPVPNADLQTARCRENKHKVGSFCKYKCKPGYHVPGSSRKSKKRAFKTQCTQDGSWQEGACVPVTCDPPPPKFHGLYQCTNGFQFNSECRIKCEDSDASQGLGSNVIHCRKDGTWNGSFHVCQEMQGQCSVPNELNSNLKLQCPDGYAIGSECATSCLDHNSESIILPMNVTVRDIPHWLNPTRVERVVCTAGLKWYPHPALIHCVKGCEPFMGDNYCDAINNRAFCNYDGGDCCTSTVKTKKVTPFPMSCDLQGDCACRDPQAQEHSRKDLRGYSHG

Key:
[1] = molecular target: T1, murine IGFBP-2 with C-terminal 6His …
[2] = molecular target: T2, murine IGFBP-4 with C-terminal 6His …
[3] = molecular target: T3, murine IGFBP-5 with C-terminal 6His …
[4] = molecular target: five representative anti-PAPP-A antibodies generated from yeast display libraries
[5] = molecular target: T4, human IGFBP-2 with N-terminal 6His tag, …
[6] = molecular target: T5, human IGFBP-4 with N-terminal 6His tag, …
[7] = molecular target: human IGFBP-5 with N-terminal 6His tag, P24593
human IGFBP-5 with N-terminal 6His tag, P24593, sequence (P24593 other isoform, or with tags, fused parts or gaps): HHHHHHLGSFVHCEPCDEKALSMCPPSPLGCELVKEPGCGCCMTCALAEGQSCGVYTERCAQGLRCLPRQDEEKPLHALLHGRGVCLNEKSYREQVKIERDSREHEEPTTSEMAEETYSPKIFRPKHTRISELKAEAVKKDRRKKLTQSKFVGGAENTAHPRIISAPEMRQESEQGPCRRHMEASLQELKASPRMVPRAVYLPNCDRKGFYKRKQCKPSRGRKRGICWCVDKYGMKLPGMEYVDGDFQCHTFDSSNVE

Protein | enzymatic cleavage of IGFBP by PAPP-A [1] | enzymatic cleavage of IGFBP by PAPP-A [2] | enzymatic cleavage of IGFBP by PAPP-A [3] | PAPP-A cleavage of human IGFBP4 at one antibody concentration (50 nM) [4] | enzymatic cleavage of IGFBP by PAPP-A [5] | enzymatic cleavage of IGFBP by PAPP-A [6] | enzymatic cleavage of IGFBP by PAPP-A [7]
B1 | cleavage of both human and murine IGFBP-4 and IGFBP-2 by PAPP-A | cleavage of both human and murine IGFBP-4 and IGFBP-2 by PAPP-A | PAPP-A's ability to cleave IGFBP-5 |  |  |  | 
B2 |  |  |  | the five representative antibodies effectively blocking cleavage of human IGFBP4 | cleavage of both human and murine IGFBP-4 and IGFBP-2 by PAPP-A | cleavage of both human and murine IGFBP-4 and IGFBP-2 by PAPP-A | PAPP-A's ability to cleave IGFBP-5
